The text below walks through data of paper PMC2192027.

For assay [1], the target named is CLIMP-63 luminal fragment 268–459 (UniProt Q07065). The experiment in a line: AUC.
The target of assay [2] is recombinant full-length luminal segment of CLIMP-63 (amino acids 127–601) (UniProt Q07065). The experiment in a line: AUC.

For the substance “CLIMP-63 luminal fragment 268–459 (from UniProt Q07065 268-459) (domain or fragment)”, the stoichiometry N in assay [1] was determined as 2.
Consider “recombinant full-length luminal segment of CLIMP-63 (amino acids 127–601) (from UniProt Q07065 127-601) (domain or fragment)”, for which, in assay [2], the percent sedimenting at 26 S (1.5 M urea) is 80%, the percent sedimenting at 26 S (2 M urea) worked out at 50% and the percent sedimenting at 26 S (2.5 M urea) was found to be 20%.

As a reminder, the stoichiometry N is the number of molecules, sites or subunits per partner or assembly.
